# T1: GPC-1 (MIL-38 antigen) expressed by human cancer cell lines DU-145, T-24, PANC-1 and MDA-MB-231 (human, UniProt P35052 24-530)
# T1 construct: whole, on cells; also called GPC-1 on the cell surface
# T1 sequence (looked up): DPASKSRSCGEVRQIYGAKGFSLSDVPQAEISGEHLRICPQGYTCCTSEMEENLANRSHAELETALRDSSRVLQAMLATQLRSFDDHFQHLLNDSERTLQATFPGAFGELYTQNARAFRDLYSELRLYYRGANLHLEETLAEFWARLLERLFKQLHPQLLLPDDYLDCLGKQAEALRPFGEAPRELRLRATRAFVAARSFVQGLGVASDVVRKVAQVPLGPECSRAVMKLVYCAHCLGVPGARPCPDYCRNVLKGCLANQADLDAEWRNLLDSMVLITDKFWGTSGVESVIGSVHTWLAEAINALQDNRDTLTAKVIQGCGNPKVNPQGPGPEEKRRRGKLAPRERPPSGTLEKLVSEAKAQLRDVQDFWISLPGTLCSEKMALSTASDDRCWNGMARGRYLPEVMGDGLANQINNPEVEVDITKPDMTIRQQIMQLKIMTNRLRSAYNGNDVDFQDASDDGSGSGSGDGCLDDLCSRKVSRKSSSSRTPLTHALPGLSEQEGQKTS
# T2: recombinant human GPC-1 (NS0-produced glypican-1 antigen) (human, UniProt P35052 24-530)
# T2 construct: Bought recombinant protein; also called recombinant NS0 GPC-1; NS0-produced recombinant GPC-1 antigen
# T2 sequence (looked up): T1 sequence (looked up)
# B1: scFv MIL-38 (scFv)
# scFv: QIQLVQSGPELKKPGETVKISCKASGYAFTDYSMNWVKQAPGKGLRWMGWINTETGEPTYTDDFKGRFAFSLETSASTAFLQINNLRNEDTATYFCARHYDYGGFPYWGQGTLVTVSSGGGGSGGGGSGGGGSDIQMTQSPASLSASVGETVTITCRASGNVHNYLAWYQQKQGKSPQLLVYTAKTLADGVPSRFSGSGSGTQYSLKINSLQPEDFGTYYCQHFWSNPWTFGGGTKLEIKHHHHHHC
# modifications: CY5 fluorophor label (site not stated)
# notes: VH (20-137), gly/ser linker (138-152), VL (153-259), hexa-His tag (260-265), C-terminal cysteine (266); Leader 1-19 is stated and left out; also called MIL-38 scFv; scFv MIL-38 construct
# B2: chimeric MIL-38 antibody (mouse VH-human CH1-CH3 heavy chain, mouse VK-human CK light chain) (antibody)
# heavy: not shown
# light: DIQMTQSPASLSASVGETVTITCRASGNVHNYLAWYQQKQGKSPQLLVYTAKTLADGVPSRFSGSGSGTQYSLKINSLQPEDFGTYYCQHFWSNPWTFGGGTKLEIKRTVAAPSVFIFPPSDEQLKSGTASVVCLLNNFYPREAKVQWKVDNALQSGNSQESVTEQDSKDSTYSLSSTLTLSKADYEKHKVYACEVTHQGLSSPVTKSFNRGEC
# notes: Human IgG1 kappa constant regions; also called chMIL-38; MIL-38 chimeric antibody
# B3: chimeric MIL-38 DOTA conjugate (antibody, human IgG1, kappa)
# heavy: not shown
# light: B2 light
# modifications: p-SCN-Bn-DOTA conjugated; sites not stated; p-SCN-Bn-DOTA conjugated; 4.3, 4.6 or 7.5 DOTA per MAb for 5, 10 or 20 fold excess; sites not stated
# notes: also called chMIL-38 DOTA; DOTA-cMIL-38
# B4: murine MIL-38 monoclonal antibody, AM4 population, clone 1F5 (hybridoma CBA20140026) (antibody, mouse IgG1, kappa)
# heavy: QIQLVQSGPELKKPGETVKISCKASGYAFTDYSMNWVKQAPGKGLRWMGWINTETGEPTYTDDFKGRFAFSLETSASTAFLQINNLRNEDTATYFCARHYDYGGFPYWGQGTLVTVSAAKTTPPSVYPLAPGSAAQTNSMVTLGCLVKGYFPEPVTVTWNSGSLSSGVHTFPAVLQSDLYTLSSSVTVPSSTWPSETVTCNVAHPASSTKVDKKIVPRDCGCKPCICTVPEVSSVFIFPPKPKDVLTITLTPKVTCVVVDISKDDPEVQFSWFVDDVEVHTAQTQPREEQFNSTFRSVSELPIMHQDWLNGKEFKCRVNSAAFPAPIEKTISKTKGRPKAPQVYTIPPPKEQMAKDKVSLTCMITDFFPEDITVEWQWNGQPAENYKNTQPIMDTDGSYFVYSKLNVQKSNWEAGNTFTCSVLHEGLHNHHTEKSLSHSPGK
# light: DIQMTQSPASLSASVGETVTITCRASGNVHNYLAWYQQKQGKSPQLLVYTAKTLADGVPSRFSGSGSGTQYSLKINSLQPEDFGTYYCQHFWSNPWTFGGGTKLEIKRADAAPTVSIFPPSSEQLTSGGASVVCFLNNFYPKDINVKWKIDGSERQNGVLNSWTDQDSKDSTYSMSSTLTLTKDEYERHNSYTCEATHKTSTSPIVKSFNRNEC
# notes: Mouse IgG1 kappa; Leader 1-19 (heavy) and 1-20 (light) are stated and left out; 1F5 is named an AM4 clone; also called AM4 MIL-38; AM4 1F5
# Assays:
# [1] = biological target: T1, GPC-1 (MIL-38 antigen) expressed by …; assay: flow cytometry, CY5-labelled scFv on DU-145 cells
# [2] = biological target: T2, recombinant human GPC-1 (NS0-produced …); assay: western blot, three-antibody detection
# [3] = biological target: T1, GPC-1 (MIL-38 antigen) expressed by …; assay: binding to DU-145 cells, graded in Table 4
# [4] = biological target: T1, GPC-1 (MIL-38 antigen) expressed by …; assay: flow cytometry on DU-145 cells (FIG. 10)
# [5] = biological target: T2, recombinant human GPC-1 (NS0-produced …); assay: direct binding ELISA, GPC-1 coated
# Procedure: The GPC-1 direct binding ELISA was performed as follows. 96 well plates were coated with 10 mM Carbonate buffer, pH 9 for 15 mins. The carbonate buffer was removed and wells were coated overnight at room temperature with 1.5 μg/ml recombinant human GPC-1 (R&D systems) in 10 mM Carbonate buffer, pH 9. The following day wells were washed with 5 mM carbonate buffer, pH 9 then blocked with 10% casein in PBS for 1 hours. The primary antibody was serially diluted starting at 25 ng/mL to 0.39 ng/mL then incubated 1 hours at room temperature. Plates were then washed four times with PBS-Tween 20 (0.1%). Secondary antibody Thermofisher rabbit anti-human was diluted 1:8000 in PBS-Tween, 10% casein then incubated for 1 hours at room temperature. Plates were washed four times with PBS-Tween and 100 μl TMB added. Plates were developed for 2 min and read at λ₄₅₀ nm.
# [6] = biological target: T2, recombinant human GPC-1 (NS0-produced …); assay: western blot, anti-mouse HRP detection
# Procedure: Briefly, after transfer membranes were blocked with 5% skim milk in PBS-Tween (0.1%) for 2 h at room temperature. Primary antibodies (1 μg/ml in 5% skim milk—PBS-Tween (0.1%) were applied and incubated overnight at 4° C. After washing (3×10 min PBS-Tween (0.1%)) membranes were incubated with secondary antibody (1:2000 sheep-anti-mouse HRP-labelled in 5% skim milk—PBS-Tween (0.1%)). After washing (3×10 min PBS-Tween (0.1%)) antigen was detected by using ECL detection kit (Biorad) and imaging with LAS4000 mini (GE Life Science).
binder,measurement,setting,value
B1,binding result,[1],binds
B2,binding result,[2],binds
same,binding result,[3],binds
B3,binding result,[4],binds
same,binding result,[5],binds
B4,binding result,[6],binds
same,binding result,[3],binds
